# From paper PMC3576267
# Assays:
# [1] = test system: GST-Jazz (three zinc finger artificial transcription factor) (synthetic construct); experiment: EMSA; conditions: 50 uM ZnCl2; 5-96 nM protein; at 12 nM shift weaker than GST-UtroUp (Fig. 2C); EMSA: 20 mM Hepes pH 7.5, 0.5 mM DTT, 100 mM NaCl, 50 uM ZnCl2, 50 ug/ml BSA, 100 ng poly(dI-dC), 0.05% NP40, 5% glycerol; temperature not stated
# [2] = test system: GST-UtroUp (six zinc finger artificial transcription factor) (synthetic construct); experiment: EMSA; conditions: 50 uM ZnCl2; 1-90 nM protein; mean of five experiments; EMSA: 20 mM Hepes pH 7.5, 0.5 mM DTT, 100 mM NaCl, 50 uM ZnCl2, 50 ug/ml BSA, 100 ng poly(dI-dC), 0.05% NP40, 5% glycerol; temperature not stated
sequence,measurement,setting,value
ATTAAGCCGGGCTGCTGCGGGCTGGGAGTATGATCC (double strand) [WT UtroUp (UtroUp-Jazz) DNA target],Kd,[1],32 nM
same,Kd,[2],3.5 nM
